What was measured:
[1] = biological target: human E2 subunit within hCore (human) (UniProt P10515); assay: gel densitometry of the purified complex
[2] = biological target: porcine E2 of native PDHc (Sus scrofa domesticus (endogenous in porcine liver)); assay: gel densitometry of the purified complex
[3] = biological target: the molecule itself; assay: cryo-EM structure

“human E3BP subunit within hCore (from UniProt O00330 54-501) (natural protein)” was tested, and the E3BP chains per 60-subunit core (E3BP molecules per 60-subunit assembly) [1] was 13.

In the case of “porcine E3BP of native PDHc (natural protein)”, the E3BP chains per 60-subunit core (E3BP molecules per 60-subunit assembly) [2] is reported as 13.

B1: human E2 homo-60-mer (enzyme)
chain: SLPPHQKVPLPSLSPTMQAGTIARWEKKEGDKINEGDLIAEVETDKATVGFESLEECYMAKILVAEGTRDVPIGAIICITVGKPEDIEAFKNYTLDSSAAPTPQAAPAPTPAATASPPTPSAQAPGSSYPPHMQVLLPALSPTMTMGTVQRWEKKVGEKLSEGDLLAEIETDKATIGFEVQEEGYLAKILVPEGTRDVPLGTPLCIIVEKEADISAFADYRPTEVTDLKPQVPPPTPPPVAAVPPTPQPLAPTPSAPCPATPAGPKGRVFVSPLAKKLAVEKGIDLTQVKGTGPDGRITKKDIDSFVPSKVAPAPAAVVPPTGPGMAPVPTGVFTDIPISNIRRVIAQRLMQSKQTIPHYYLSIDVNMGEVLLVRKELNKILEGRSKISVNDFIIKASALACLKVPEANSSWMDTVIRQNHVVDVSVAVSTPAGLITPIVFNAHIKGVETIANDVVSLATKAREGKLQPHEFQGGTFTISNLGMFGIKNFSAIINPPQACILAIGASEDKLVPADNEKGFDVASMMSVTLSCDHRVVDGAVGAQWLAEFRKYLEKPITMLL
B1 was tested, and the “stoichiometry N” value [3] was 60 subunits.

B2: human E2 subunit within hCore (enzyme)
chain: SLPPHQKVPLPSLSPTMQAGTIARWEKKEGDKINEGDLIAEVETDKATVGFESLEECYMAKILVAEGTRDVPIGAIICITVGKPEDIEAFKNYTLDSSAAPTPQAAPAPTPAATASPPTPSAQAPGSSYPPHMQVLLPALSPTMTMGTVQRWEKKVGEKLSEGDLLAEIETDKATIGFEVQEEGYLAKILVPEGTRDVPLGTPLCIIVEKEADISAFADYRPTEVTDLKPQVPPPTPPPVAAVPPTPQPLAPTPSAPCPATPAGPKGRVFVSPLAKKLAVEKGIDLTQVKGTGPDGRITKKDIDSFVPSKVAPAPAAVVPPTGPGMAPVPTGVFTDIPISNIRRVIAQRLMQSKQTIPHYYLSIDVNMGEVLLVRKELNKILEGRSKISVNDFIIKASALACLKVPEANSSWMDTVIRQNHVVDVSVAVSTPAGLITPIVFNAHIKGVETIANDVVSLATKAREGKLQPHEFQGGTFTISNLGMFGIKNFSAIINPPQACILAIGASEDKLVPADNEKGFDVASMMSVTLSCDHRVVDGAVGAQWLAEFRKYLEKPITMLL
modifications: one lipoamide in each of the two lipoyl domains (fully lipoylated by ESI-MS); N-terminal methionine present
B2: binds [3].
